# Test results from publication PMC3753651.
# How the values were obtained:
# GFP-Polη = GFP-Polη (UniProt Q9Y253); test: co-IP
# [1] = target: GFP-mRev1 (not stated (label mRev1)) (UniProt Q920Q2); test: co-IP
substance,measurement,setting,value
PCNA-Ub (C-terminal fusion of ubiquitin to PCNA-K164R) (from UniProt P12004 1-261; P0CG48 1-76),PCNA-Ub:PCNA precipitation ratio,GFP-Polη,3.5
same,PCNA-Ub:PCNA precipitation ratio,[1],8.5
